Experimental data taken from the Human Domainome abundance scans (Beltran et al. 2025).
± gives the uncertainty stated by the source.

B1: Peripheral plasma membrane protein CASK, residues 488 to 569; numbered along this chain, O14936 (parent)
chain: VRLVQFQKNTDEPMGITLKMNELNHCIVARIMHGGMIHRQGTLHVGDEIREINGISVANQTVEQLQKMLREMRGSITFKIVP

Variants of: B1
Test: abundance fitness (aPCA) (normalised: wild type 0, dead -1); higher = more abundant; growth selection in yeast, the domain comes from the species named
Details: Homo sapiens
VRLVQFQKNTDEPMGITLKMNELNHCIVARIMHGGMIHRQGTLHVGDEIREINGISVANQTVEQLQKMLREMRGSIMFKIVP [T77M] gave an abundance fitness of -0.309 ± 0.22.
Work on VRLVQFQKNTDEPMGITLKMNELNHCIVARIMHGGMIHRQGTLHVGDEIREINGISVANQTVEQLQKMLREMRGSIDFKIVP [T77D] yielded an abundance fitness of -0.061 ± 0.065.
With VRLVQFQKNTDEPMGITLKMNELNHCIVARIMHGGMIHRQGTLHVGDEIREINGISVANQTVEQLQKMLREMRGSIEFKIVP [T77E] the abundance fitness was -0.034 ± 0.059.
For VRLVQFQKNTDEPMGITLKMNELNHCIVARIMHGGMIHRQGTLHVGDEIREINGISVANQTVEQLQKMLREMRGSIWFKIVP [T77W], the abundance fitness was -0.014 ± 0.048.
VRLVQFQKNTDEPMGITLKMNELNHCIVARIMHGGMIHRQGTLHVGDEIREINGISVANQTVEQLQKMLREMRGSILFKIVP [T77L] showed an abundance fitness of -0.064 ± 0.035.
For VRLVQFQKNTDEPMGITLKMNELNHCIVARIMHGGMIHRQGTLHVGDEIREINGISVANQTVEQLQKMLREMRGSIKFKIVP [T77K], the abundance fitness was -0.041 ± 0.057.
Variant VRLVQFQKNTDEPMGITLKMNELNHCIVARIMHGGMIHRQGTLHVGDEIREINGISVANQTVEQLQKMLREMRGSIVFKIVP [T77V] has an abundance fitness of -0.103 ± 0.046.
In the case of VRLVQFQKNTDEPMGITLKMNELNHCIVARIMHGGMIHRQGTLHVGDEIREINGISVANQTVEQLQKMLREMRGSIGFKIVP [T77G], the abundance fitness is reported as -0.248 ± 0.047.
VRLVQFQKNTDEPMGITLKMNELNHCIVARIMHGGMIHRQGTLHVGDEIREINGISVANQTVEQLQKMLREMRGSIYFKIVP [T77Y] gave an abundance fitness of -0.112 ± 0.078.
VRLVQFQKNTDEPMGITLKMNELNHCIVARIMHGGMIHRQGTLHVGDEIREINGISVANQTVEQLQKMLREMRGSISFKIVP [T77S] gave an abundance fitness of -0.002 ± 0.035.
In the case of VRLVQFQKNTDEPMGITLKMNELNHCIVARIMHGGMIHRQGTLHVGDEIREINGISVANQTVEQLQKMLREMRGSIRFKIVP [T77R], the abundance fitness is reported as -0.088 ± 0.035.
With VRLVQFQKNTDEPMGITLKMNELNHCIVARIMHGGMIHRQGTLHVGDEIREINGISVANQTVEQLQKMLREMRGSICFKIVP [T77C] the abundance fitness was -0.058 ± 0.051.
With VRLVQFQKNTDEPMGITLKMNELNHCIVARIMHGGMIHRQGTLHVGDEIREINGISVANQTVEQLQKMLREMRGSIQFKIVP [T77Q] the abundance fitness was -0.04 ± 0.039.
In the case of VRLVQFQKNTDEPMGITLKMNELNHCIVARIMHGGMIHRQGTLHVGDEIREINGISVANQTVEQLQKMLREMRGSIHFKIVP [T77H], the abundance fitness is reported as -0.194 ± 0.055.
VRLVQFQKNTDEPMGITLKMNELNHCIVARIMHGGMIHRQGTLHVGDEIREINGISVANQTVEQLQKMLREMRGSINFKIVP [T77N] gave an abundance fitness of -0.096 ± 0.065.
With VRLVQFQKNTDEPMGITLKMNELNHCIVARIMHGGMIHRQGTLHVGDEIREINGISVANQTVEQLQKMLREMRGSIIFKIVP [T77I] the abundance fitness was -0.026 ± 0.069.
Work on VRLVQFQKNTDEPMGITLKMNELNHCIVARIMHGGMIHRQGTLHVGDEIREINGISVANQTVEQLQKMLREMRGSITCKIVP [F78C] yielded an abundance fitness of -0.233 ± 0.052.
With VRLVQFQKNTDEPMGITLKMNELNHCIVARIMHGGMIHRQGTLHVGDEIREINGISVANQTVEQLQKMLREMRGSITDKIVP [F78D] the abundance fitness was -1.22 ± 0.36.
Work on VRLVQFQKNTDEPMGITLKMNELNHCIVARIMHGGMIHRQGTLHVGDEIREINGISVANQTVEQLQKMLREMRGSITVKIVP [F78V] yielded an abundance fitness of -0.198 ± 0.035.
VRLVQFQKNTDEPMGITLKMNELNHCIVARIMHGGMIHRQGTLHVGDEIREINGISVANQTVEQLQKMLREMRGSITKKIVP [F78K] showed an abundance fitness of -0.964 ± 0.15.
Work on VRLVQFQKNTDEPMGITLKMNELNHCIVARIMHGGMIHRQGTLHVGDEIREINGISVANQTVEQLQKMLREMRGSITWKIVP [F78W] yielded an abundance fitness of -0.484 ± 0.074.
VRLVQFQKNTDEPMGITLKMNELNHCIVARIMHGGMIHRQGTLHVGDEIREINGISVANQTVEQLQKMLREMRGSITLKIVP [F78L] showed an abundance fitness of -0.007 ± 0.027.
In the case of VRLVQFQKNTDEPMGITLKMNELNHCIVARIMHGGMIHRQGTLHVGDEIREINGISVANQTVEQLQKMLREMRGSITGKIVP [F78G], the abundance fitness is reported as -0.886 ± 0.1.
Variant VRLVQFQKNTDEPMGITLKMNELNHCIVARIMHGGMIHRQGTLHVGDEIREINGISVANQTVEQLQKMLREMRGSITTKIVP [F78T] has an abundance fitness of -0.677 ± 0.066.
With VRLVQFQKNTDEPMGITLKMNELNHCIVARIMHGGMIHRQGTLHVGDEIREINGISVANQTVEQLQKMLREMRGSITIKIVP [F78I] the abundance fitness was -0.045 ± 0.038.
Work on VRLVQFQKNTDEPMGITLKMNELNHCIVARIMHGGMIHRQGTLHVGDEIREINGISVANQTVEQLQKMLREMRGSITRKIVP [F78R] yielded an abundance fitness of -0.812 ± 0.071.
VRLVQFQKNTDEPMGITLKMNELNHCIVARIMHGGMIHRQGTLHVGDEIREINGISVANQTVEQLQKMLREMRGSITMKIVP [F78M] gave an abundance fitness of 0.052 ± 0.1.
VRLVQFQKNTDEPMGITLKMNELNHCIVARIMHGGMIHRQGTLHVGDEIREINGISVANQTVEQLQKMLREMRGSITYKIVP [F78Y] showed an abundance fitness of -0.524 ± 0.064.
Work on VRLVQFQKNTDEPMGITLKMNELNHCIVARIMHGGMIHRQGTLHVGDEIREINGISVANQTVEQLQKMLREMRGSITSKIVP [F78S] yielded an abundance fitness of -0.839 ± 0.065.
Work on VRLVQFQKNTDEPMGITLKMNELNHCIVARIMHGGMIHRQGTLHVGDEIREINGISVANQTVEQLQKMLREMRGSITQKIVP [F78Q] yielded an abundance fitness of -1.22 ± 0.42.
VRLVQFQKNTDEPMGITLKMNELNHCIVARIMHGGMIHRQGTLHVGDEIREINGISVANQTVEQLQKMLREMRGSITNKIVP [F78N] gave an abundance fitness of -0.922 ± 0.16.
VRLVQFQKNTDEPMGITLKMNELNHCIVARIMHGGMIHRQGTLHVGDEIREINGISVANQTVEQLQKMLREMRGSITAKIVP [F78A] gave an abundance fitness of -0.473 ± 0.047.
VRLVQFQKNTDEPMGITLKMNELNHCIVARIMHGGMIHRQGTLHVGDEIREINGISVANQTVEQLQKMLREMRGSITHKIVP [F78H] showed an abundance fitness of -0.95 ± 0.16.
Work on VRLVQFQKNTDEPMGITLKMNELNHCIVARIMHGGMIHRQGTLHVGDEIREINGISVANQTVEQLQKMLREMRGSITPKIVP [F78P] yielded an abundance fitness of -0.998 ± 0.12.
